Test results from patent EP4796630A2 (Hugel Inc., dated 2026).
“And” between values parts separate entries of the source, which are not always exact repeats. Equal values may be shown once. Read-outs that look alike come from different tables or passages of the source.

Assays:
[1] = molecular target: T1, endogenous SNAP25197 in total cell lysate of BoNT/A-treated N2-42F cells (mouse, UniProt P60879 1-197); experiment: sandwich ELISA, plate coated with B4 IgG, lysate of BoNT/A-treated N2-42F cells
T1 construct: range 1-197; also called SNAP25197 captured

recombinant GST-SNAP25FL [2] = molecular target: T2, recombinant GST-SNAP25FL (UniProt P60880 1-206); experiment: BLI (Octet Red96), IgG on AMC biosensor, GST-SNAP25FL as analyte; Kdis is the instrument's lowest limit, tentatively given
T2 construct: range 1-206; also called SNAP25 206; full-length SNAP25; not shown: GST tag

recombinant GST-SNAP25FL [3] = molecular target: T2, recombinant GST-SNAP25FL; experiment: BLI (Octet Red96), IgG on AMC biosensor, GST-SNAP25FL as analyte; from tentative Kdis
[4] = molecular target: T3, recombinant GST-SNAP25197 (UniProt P60880 1-197); experiment: direct ELISA; ratio of A450 with SNAP25197 to A450 with SNAP25FL
T3 construct: range 1-197; also called BoNT/A-cleaved form of SNAP25

recombinant GST-SNAP25FL [5] = molecular target: T2, recombinant GST-SNAP25FL; experiment: BLI (Octet Red96), IgG on AMC biosensor, GST-SNAP25FL as analyte
[6] = molecular target: T3, recombinant GST-SNAP25197
recombinant GST-SNAP25FL [7] = molecular target: T2, recombinant GST-SNAP25FL; experiment: BLI (Octet Red96), IgG on AMC biosensor, GST-SNAP25FL as analyte; remark: listed apart in the source
[8] = molecular target: T3, recombinant GST-SNAP25197; experiment: BLI (Octet Red96), IgG on AMC biosensor, GST-SNAP25197 as analyte
[9] = molecular target: T3, recombinant GST-SNAP25197; experiment: as above; remark: listed apart in the source
[10] = molecular target: T3, recombinant GST-SNAP25197; remark: listed apart in the source
[11] = molecular target: T1, endogenous SNAP25197 in total cell …; experiment: sandwich ELISA on lysate of BoNT/A-treated N2-42F cells

T2 sequence (P60880 whole entry): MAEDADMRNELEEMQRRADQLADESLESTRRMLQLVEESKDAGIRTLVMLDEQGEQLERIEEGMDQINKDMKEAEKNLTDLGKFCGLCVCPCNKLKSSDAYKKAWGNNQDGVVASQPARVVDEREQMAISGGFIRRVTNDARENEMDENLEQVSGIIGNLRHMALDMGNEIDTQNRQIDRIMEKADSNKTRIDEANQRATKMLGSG
T3 sequence (P60880 1-197 limits assumed): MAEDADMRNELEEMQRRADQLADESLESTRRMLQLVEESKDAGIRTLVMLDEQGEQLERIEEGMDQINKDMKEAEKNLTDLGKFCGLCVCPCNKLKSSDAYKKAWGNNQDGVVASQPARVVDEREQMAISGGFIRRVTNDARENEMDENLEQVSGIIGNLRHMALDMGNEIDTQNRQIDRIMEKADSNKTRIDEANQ
T1 sequence (P60879 1-197 limits assumed): as the sequence (P60880 1-197 limits assumed) above

B1: B4 IgG (antibody, V domains shown)
VH: EVKLVESGGGLVKPGGSLKLSCAASGFTFSNYGMSWVRQTPEKRLEWVATISSGGSYTYYPDSVKGRFTISRDNAKNTLYLQMSSLRSEDTAMYYCARHEGGGNPYFDYWGQGTTLTVSS
VL: DVLMTQTPLSLPVSLGDQASISCRSSQSLVHSNGNTYLHWYLQKPGQSPKLLIYKVSNRFSGVPDRFSGSGSGTDFTLKISRVEAEDLGVYFCSQNTLVPWTFGGGTKLEIK
notes: also called B4 IgG1; clone 4
With B1 the binding result [1] was “binds”, the koff (recombinant GST-SNAP25FL [2]) was no more than 1e-07 s⁻¹ and the Kd (recombinant GST-SNAP25FL [3]) was no more than 0.1 pM. It also gave a Ratio197/206 [4] of 0.83 and a kon (recombinant GST-SNAP25FL [5]) of 95100 M⁻¹ s⁻¹.

B2: D3 IgG (antibody, V domains shown)
VH: EVQLEESGGGLVQPGGSLKLSCAASGFTFSNYGMSWVRQTPDKRLELVATINSNGGTTYYPDSVKGRFTISRDNAKNTLYLQMSSLKSEDSAMYYCARDRDAMDYWGQGTSVTVSS
VL: DVLMTQTPLSLPVSLGDQASISCRSSQSIVNSHGNTYLEWYLQKPGQSPKLLIYKVSNRFSGVPDRFSGSGSGTDFTLKISRVEAEDLGVYYCFQGSHVPWTFGGGTKLEIK
In the case of B2, the Kd [6] is reported as no more than 0.9 pM, the koff [6] is reported as no more than 1e-07 s⁻¹ and the binding result (recombinant GST-SNAP25FL [7]) is reported as “no binding (tested: up to 1 µM)”. The kon [8] was 111000 M⁻¹ s⁻¹ and the Ratio197/206 [4] was 12.9.

B3: D6 IgG (antibody, V domains shown)
VH: EVQLQQSGPELVKPGASVKISCKASGYTFTDYNMHWVKQSHGKSLEWIGYIYPYNGDTGYNQKFKSKATLTVDNSSSTAYMELRSLTSEDSAVYYCVRSGDYWGQGTTLTVSS
VL: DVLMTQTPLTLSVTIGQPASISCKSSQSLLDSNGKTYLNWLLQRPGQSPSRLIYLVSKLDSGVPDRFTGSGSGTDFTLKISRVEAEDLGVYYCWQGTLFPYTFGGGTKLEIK
B3 was tested, and the koff (recombinant GST-SNAP25FL [2]) was no more than 1e-07 s⁻¹, the binding result [9] was “no binding” and the Kd (recombinant GST-SNAP25FL [3]) was no more than 2.84 pM. For the same binder, the Ratio197/206 [4] was 0.02 and the kon (recombinant GST-SNAP25FL [5]) was 35200 M⁻¹ s⁻¹.

B4: B23 IgG (antibody, V domains shown)
VH: EVQLQQSGAELVRPGASVKLSCTASGINIKDYYMHWMKQRPEQDLEWIGWIDPGNGDAEYAPKFQGKATMTADTSSNTAYLQLSSLTSEDTAVYYCNEIAYWGQGTLVTVSA
VL: not shown
notes: also called B23 IgG1
B4 showed a koff (recombinant GST-SNAP25FL [2]) of no more than 1e-07 s⁻¹, a Kd [6] of no more than 3.27 pM and a koff [6] of no more than 1e-07 s⁻¹. The Kd (recombinant GST-SNAP25FL [3]) was no more than 0.1 pM, the kon [8] was 25400 M⁻¹ s⁻¹ and the Ratio197/206 [4] was 0.92. The kon (recombinant GST-SNAP25FL [5]) was 95800 M⁻¹ s⁻¹.

B5: C4 IgG (antibody, V domains shown)
VH: DVKLQESGPGLVKPSQSLSLTCTVTGYSITSDYAWNWIRQFPGNKLEWMGYISYSVGTRYNPSLKSRISITRDTSKNQFFLLLKSVTNEDTATYFCARKGEYGFAYWGQGTLVTVSA
VL: DIVMTQSPASLAVSLGQRATISCRASKSVSTSGYSYMHWYQQKPGQPPKLLIYLASNLESGVPARFSGSGSGTDFTLNIHPVEEEDAATYYCQHSRELPLTFGAGTKLELK
With B5 the Kd [6] was 1.07 pM, the koff [6] was 1e-07 s⁻¹ and the binding result (recombinant GST-SNAP25FL [7]) was “no binding (tested: up to 1 µM)”. The Kd [10] was 6530 pM and 17800 pM, the koff [10] was 0.00148 s⁻¹ and 0.0041 s⁻¹ and the kon [10] was 230000 M⁻¹ s⁻¹ and 227000 M⁻¹ s⁻¹. It also gave a kon [8] of 92800 M⁻¹ s⁻¹ and a Ratio197/206 [4] of 919.

B6: C7 IgG (antibody, V domains shown)
VH: QVQLVETGGGLVQPKGSLKLSCAASGFTFNTNAMNWVRQAPGKGLEWVARIRSKSNNYATYYADSVKDRFTISRDDSQSLLYLQMNNLKTEDTAMYYCVYGRSYGGLSYWGQGTLVTVSA
VL: DIVMTQSPASLAVSLGQRATISCRASKSVSSSGYSYMHWYQQKPGQPPKLLIYLASNLESGVPARFSGSGSGTDFTLNIHPVEEEDAATYYCQHSRELPLTFGAGTKLELK
notes: also called C7 IgG2a
In the case of B6, the Kd [6] is reported as 1.28 pM, the koff [6] is reported as 1e-07 s⁻¹ and the binding result (recombinant GST-SNAP25FL [7]) is reported as “no binding (tested: up to 1 µM)”. The kon [10] was 277000 M⁻¹ s⁻¹ and 257000 M⁻¹ s⁻¹, the kon [8] was 77800 M⁻¹ s⁻¹ and the Ratio197/206 [4] was 1040.

B7: C16 IgG-HRP conjugate (antibody, V domains shown)
VH: EVQLQQSGAELARPGASVQMSCKAFGYTFTNYTMHWVRQRPGQGLEWIGFINPSSDYTNYNQKFKDKATLSADKSSSTAYMQLSSLTSEDSAVYYCARRIFYNGRTYAAMDYWGQGTSVTVSS
VL: DIVMTQSPASLAVSLGQRATISCRASKSVSSSGYSYMHWYQQKPGQPPKLLIYLASNLESGVPARFSGSGSGTDFTLNIHPVEEEDAATYYCQHSRELPLTFGAGTKLELK
notes: also called C16-HRP; Cg16 IgG-HRP conjugates
B7: binds [11].

B8: C16 IgG (antibody, V domains shown)
VH: EVQLQQSGAELARPGASVQMSCKAFGYTFTNYTMHWVRQRPGQGLEWIGFINPSSDYTNYNQKFKDKATLSADKSSSTAYMQLSSLTSEDSAVYYCARRIFYNGRTYAAMDYWGQGTSVTVSS
VL: DIVMTQSPASLAVSLGQRATISCRASKSVSSSGYSYMHWYQQKPGQPPKLLIYLASNLESGVPARFSGSGSGTDFTLNIHPVEEEDAATYYCQHSRELPLTFGAGTKLELK
notes: also called C16 IgG1
B8 was tested, and the binding result (recombinant GST-SNAP25FL [7]) was “no binding (tested: up to 1 µM)”, the Kd [10] was 6440 pM and 9170 pM and the koff [10] was 0.00152 s⁻¹ and 0.00215 s⁻¹. The kon [10] was 236000 M⁻¹ s⁻¹ and 235000 M⁻¹ s⁻¹, the Kd [8] was 1.62 pM and the koff [8] was 2.57e-06 s⁻¹. The kon [8] was 1.6e+06 M⁻¹ s⁻¹ and the Ratio197/206 [4] was 996.

B9: C24 IgG (antibody, V domains shown)
VH: EVKLVESGGGLVQPKGSLKLSCAASGYTFNTYAMNWVRQAPGKGLEWVARIRSKSNNYTTYYADSVKDRFTISRDDSQSMLYLQINNLKTEDTAMYYCVGQILYYYVGSPAWFAYWGQGTLVTVSA
VL: DIVMTQSPASLAVSLGQRATISCRASKSVSTSGYSYMHWYQQKPGQPPKLLIFLASNLESGVPARFSGSGSGTDFTLNIHPVEEEDAATYYCQHSRELPWTFGGGTKLEIK
B9 was tested, and the Kd [6] was 1.15 pM, the koff [6] was 1e-07 s⁻¹ and the binding result (recombinant GST-SNAP25FL [7]) was “no binding (tested: up to 1 µM)”. The Kd [10] was 9620 pM and 5250 pM, the koff [10] was 0.00509 s⁻¹ and 0.00241 s⁻¹ and the kon [10] was 529000 M⁻¹ s⁻¹ and 458000 M⁻¹ s⁻¹. For the same binder, the kon [8] was 86800 M⁻¹ s⁻¹ and the Ratio197/206 [4] was 973.

B10: C14 IgG (antibody, V domains shown)
VH: EVKLVESGGGLVQPKGSLKLSCAASGFTFNTNAMNWVRQAPGKGLEWVARIRSKSDNYATYYADSVKDRFTISRDDSPSMLYLQMNNLKTEDTAMYYCVYGRSYGGLGYWGQGTLVTVSA
VL: DIVLTQSPASLAVSLGQRATISCRASKSVSTSGYSYVHWYQQKPGQPPKLLIYLASNLESGVPARFSGSGSGTDFTLNIHPVEEEDAATYYCQHSRELPLTFGAGTKLELK
In the case of B10, the Kd [6] is reported as no more than 1.3 pM, the koff [6] is reported as no more than 1e-07 s⁻¹ and the binding result (recombinant GST-SNAP25FL [7]) is reported as “no binding (tested: up to 1 µM)”. It also gave a kon [8] of 76700 M⁻¹ s⁻¹ and a Ratio197/206 [4] of 953.

B11: D2 IgG (antibody, V domains shown)
VH: DVKLQESGPGLVKPSQSLSLTCSVTGYSITSGYYWNWIRQFPGNKLEWMGYIRYDGSNNYNPSLKNRISITRDTSKNQFFLKLNSVTTEDTASYYCARDRDSSYYFDYWGQGTALTVSS
VL: DIVMTQSSSYLSVSLGGRVTITCKASDHINNWLAWYQQKPGNAPRLLISDTTSLETGVPSRFSGSGSGKDYTLSITSLQTEDVATYYCQQYWSAPPTFGGGTKLEIK
B11 was tested, and the koff (recombinant GST-SNAP25FL [2]) was no more than 1e-07 s⁻¹, the binding result [9] was “no binding” and the Kd (recombinant GST-SNAP25FL [3]) was no more than 0.61 pM. It also gave a Ratio197/206 [4] of 0.03 and a kon (recombinant GST-SNAP25FL [5]) of 164000 M⁻¹ s⁻¹.
